How the values were obtained:
SW:329-349 = target: T1, SW:329-349
T1 chain: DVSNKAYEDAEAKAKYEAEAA

SW:329-358 = target: T2, SW:329-358
T2 chain: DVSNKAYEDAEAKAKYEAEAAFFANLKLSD

[1] = target: T3, wild-type PKG Iα (cGMP-dependent protein kinase type Iα, full length) (UniProt P00516 2-671); test: cell-based or functional assay
T3 sequence (looked up): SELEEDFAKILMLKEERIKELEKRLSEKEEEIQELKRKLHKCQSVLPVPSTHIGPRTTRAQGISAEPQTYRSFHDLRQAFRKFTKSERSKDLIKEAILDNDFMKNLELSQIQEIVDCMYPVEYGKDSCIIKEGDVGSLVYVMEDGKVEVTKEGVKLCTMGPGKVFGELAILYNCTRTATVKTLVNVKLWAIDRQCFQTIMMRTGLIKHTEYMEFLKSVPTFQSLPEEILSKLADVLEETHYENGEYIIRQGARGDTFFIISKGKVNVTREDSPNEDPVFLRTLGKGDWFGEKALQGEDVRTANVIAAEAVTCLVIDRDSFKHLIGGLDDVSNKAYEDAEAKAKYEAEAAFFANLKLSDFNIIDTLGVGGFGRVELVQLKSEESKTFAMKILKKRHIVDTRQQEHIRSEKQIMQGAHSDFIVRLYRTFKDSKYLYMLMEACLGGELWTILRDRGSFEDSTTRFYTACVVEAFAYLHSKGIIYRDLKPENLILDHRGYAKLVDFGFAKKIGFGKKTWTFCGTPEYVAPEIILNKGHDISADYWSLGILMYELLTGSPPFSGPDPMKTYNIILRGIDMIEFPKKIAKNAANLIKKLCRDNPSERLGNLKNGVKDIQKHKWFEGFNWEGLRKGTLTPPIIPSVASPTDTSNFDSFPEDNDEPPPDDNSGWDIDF

B1: wild-type PKG Iα (cGMP-dependent protein kinase type Iα, full length) (protein)
chain: SELEEDFAKILMLKEERIKELEKRLSEKEEEIQELKRKLHKCQSVLPVPSTHIGPRTTRAQGISAEPQTYRSFHDLRQAFRKFTKSERSKDLIKEAILDNDFMKNLELSQIQEIVDCMYPVEYGKDSCIIKEGDVGSLVYVMEDGKVEVTKEGVKLCTMGPGKVFGELAILYNCTRTATVKTLVNVKLWAIDRQCFQTIMMRTGLIKHTEYMEFLKSVPTFQSLPEEILSKLADVLEETHYENGEYIIRQGARGDTFFIISKGKVNVTREDSPNEDPVFLRTLGKGDWFGEKALQGEDVRTANVIAAEAVTCLVIDRDSFKHLIGGLDDVSNKAYEDAEAKAKYEAEAAFFANLKLSDFNIIDTLGVGGFGRVELVQLKSEESKTFAMKILKKRHIVDTRQQEHIRSEKQIMQGAHSDFIVRLYRTFKDSKYLYMLMEACLGGELWTILRDRGSFEDSTTRFYTACVVEAFAYLHSKGIIYRDLKPENLILDHRGYAKLVDFGFAKKIGFGKKTWTFCGTPEYVAPEIILNKGHDISADYWSLGILMYELLTGSPPFSGPDPMKTYNIILRGIDMIEFPKKIAKNAANLIKKLCRDNPSERLGNLKNGVKDIQKHKWFEGFNWEGLRKGTLTPPIIPSVASPTDTSNFDSFPEDNDEPPPDDNSGWDIDF
- activation of PKG Iα (32P-incorporation assay, cGMP priming conditions) (SW:329-349): rendered a completely inactive SW-peptide derivative
- Ka (activation of PKG Iα, 32P-incorporation assay) (SW:329-358): Ka=500 µM

Binder: DVSNKAYEDAEAKAKYEAEAAFFANLK [SW:329-355]
- Ka (activation of PKG Iα, cGMP priming conditions) [1]: 500 µM

Binder: AAFFANLK [SW:348-355 AAFFANLK]
- Ka (activation of PKG) [1]: 500 µM
- activation relative to activation associated with cGMP [1]: 30%

Binder: DVSNKAYEDAEAKAKYEAEAAFFANLKLSD [SW:329-358]
- Ka (activation of PKG Iα, kinase primed with 100 nM cGMP) [1]: 40 µM
- shift of the activation profile on priming with 100 nM cGMP [1]: 20 fold

Source: patent US20140037547A1 (UNIVERSITY OF VERMONT AND STATE AGRICULTURAL COLLEGE, published 2014)
